Assay results as given in the supplement of paper PMC10567573.

B1: ATL3 (parent)
chain: YGLQGGMAFLDKRLQVKEHQHEEI
B2: DLC1 (parent)
chain: AEVVKIRDSFSNQNTETKDTKSR

Variants of: B1
Assay: protein stability index of a GFP-peptide fusion (GPS, HEK-293T) (PSI 1-6); higher = more stable
Settings: c terminus: a fixed tail appended
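Further: lentivirally expressed fusions sorted by FACS into six bins by GFP to DsRed ratio, PSI derived from sequencing read proportions per bin multiplied by bin number.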

Protein stability index, by site and new letter:
H21: V 2.1, Y 2.55, K 3.21, E 3.27, S 3.88, C 2.48, P 2.33, A 2.51, T 3.49, D 2.11, M 2.2, R 3.51, I 3.39, Q 2.44, L 2.8, F 1.6
H19: P 2.5, Y 2.76, E 2.81, M 2.82, V 3.03, D 3.38, S 2.01, I 2.95, G 2.65, K 2.25, A 2.74, L 2.36, T 2.54, Q 2.48, C 2.31, W 3.59, N 2.6
E18: T 2.4, C 2.58, Y 2.61, A 3.26, D 2.19, V 1.9, H 2.48, M 3.04, K 3.37, F 3.53, I 3.67, N 2.32, L 1.74, W 3.87, S 1.73, Q 1.99, R 2.19, P 2.37, G 3.65
L14: I 2.63, Q 1.52, N 1.77, M 2.07, S 2.57, A 3.51, R 2.48, T 3.17, E 2.55, Y 3.4, K 2.1, G 3.93, H 2.04, D 2.16, V 2.45, W 2.82, P 3.04, F 2.82, C 3.61
E22: I 2.94, N 3.19, V 1.45, R 2.16, H 2.91, G 2.8, A 2.54, D 2.48, K 1.86, W 2.76, Y 2.6, C 2.48, M 2.24, F 2.03, L 2.68, P 2.96, Q 1.75, T 1.9, S 3.33
I24: V 2.5, E 2.29, M 1.71, F 4.03, L 2.51, D 2.33, K 2.35, H 3.42, S 2.56, A 2.58, R 2.26, Y 4.04, G 3.23, Q 2.14, T 1.79, C 3.25, P 2.81, N 2.89
V16: R 2.02, T 2.3, W 2.33, Q 3.13, D 2.08, E 2.79, L 2.81, N 1.6, A 2.7, S 1.46, F 2.5, G 1.77, P 1.22, C 2.78, H 1.91, K 2.84, M 2.42, Y 3.04
Q20: E 2.5, W 1.55, H 3.12, I 2.56, D 3.09, S 2.12, P 2, K 1.85, T 2.2, N 2.86, C 3.54, R 1.57, G 3.57, A 2.87, Y 2.58, V 2.99, F 3.31, M 2.35
R13: W 1.73, Y 1.34, F 2.73, L 2.3, E 1.59, G 1.28, I 1.66, H 2.26, V 2.14, N 2.87, S 1.98, K 2.84, M 2.04, Q 1.86, T 2.28, P 1.93
Q15: N 1.79, L 2.21, A 3.14, D 2.4, T 2.04, P 2.47, R 2.28, H 2.75, C 3.47, I 2.64, W 2.37, E 1.76, K 2.54, F 2.65, G 2.69, S 3.92, M 3.24, Y 2.44, V 2.9
E23: K 2.43, D 3.04, M 3.12, H 2.38, W 2.57, S 2.41, P 3.04, Q 2.9, A 1.94, T 2.74, L 2.25, C 3.04, N 2.85, I 2.66, V 2.17, F 2.43, Y 2.76, G 3.58, R 2.99
K17: W 2.2, I 2.51, N 3.3, P 2.82, A 1.42, E 2.56, T 2.7, H 2.63, S 1.8, C 2.17, M 2.55, D 1.54, Q 1.55, Y 3.11, V 2.42, F 2.52, R 2.99

Variants of: B2
Assay: as above
Settings: c terminus: native

Protein stability index, by site and new letter:
Q13: W 2.36, G 2.33, K 1.77, V 3.62, C 1.93, T 2.45
T15: K 2.21, R 1.67, N 2.52, L 2.17, H 1.77, G 4.39
S22: G 1.89, H 3.48, A 1.93, I 3.14, F 4.11
K21: R 1.71, C 4.39, W 3.92, T 4.87
D19: S 2.19, F 1.92, E 2.31, K 1.85, Y 2.69, W 1.45
R7: V 3.12, F 3.38, P 3.24, C 2.5, W 1.69
T17: V 1.26, D 1.83, K 2.17, H 1.73, I 2.41, E 2.43, F 2.54
V3: G 2.12, P 3.46, Q 2.47, L 2.29, I 1.63, D 3.54, N 3
N12: L 3.05, H 2.44
E16: C 1.84, K 3.12, I 1.97, W 1.95, G 2.38
T20: E 1.64, S 1.79
D8: F 3.02, T 2.32, S 1.8, K 2.08, L 2.62, C 1.46
S11: P 2.54, N 4.69, K 3.15
K5: G 3.3, S 2.77, P 2.67, M 2.09, H 2.58
S9: W 2.14, A 2.55, G 2, Q 1.87, V 2.25, P 2.64, N 2.22, C 2.8, K 2.32
A1: F 2.06, R 2.73, L 2.08, I 2.06, G 2.9, D 3.12, M 2.37
N14: L 2.09, R 2.48, W 2.37, T 2.55, C 2.16, H 2.46
K18: T 2.2, Q 1.84, R 1.5, M 1.91, C 2.84
V4: S 2.12, M 2.05, Q 2.81
R23: W 3.23, K 5.49, I 4.91, A 5.57
I6: V 2.74, M 2.64, E 3.33, H 2.42, L 2.74
E2: R 1.88, C 2.43, S 2.75, Q 1.79
F10: T 3.68, M 2.93, P 3.63, E 3.46, N 3.64, G 4.24, V 2.95
